The term Kd denotes the concentration at which binding is half-saturated. The term koff denotes a measure of how fast the partners let go of each other. As usually defined, the kon is the rate constant with which the complex forms. Read a low kon as slow association.

The target of assay [1] is SLAM (Canis lupus familiaris) (UniProt Q95MM9). To be noted: cited from earlier work.
Assay [2] concerns the target head domain of measles virus hemagglutinin, Edmonston vaccine strain (measles virus, Edmonston strain) (UniProt P08362). As to the kind of experiment: SPR. A general note: Surface plasmon resonance follows binding to a sensor surface in real time, without labels.
Chain of UniProt P08362 (P08362 149-617): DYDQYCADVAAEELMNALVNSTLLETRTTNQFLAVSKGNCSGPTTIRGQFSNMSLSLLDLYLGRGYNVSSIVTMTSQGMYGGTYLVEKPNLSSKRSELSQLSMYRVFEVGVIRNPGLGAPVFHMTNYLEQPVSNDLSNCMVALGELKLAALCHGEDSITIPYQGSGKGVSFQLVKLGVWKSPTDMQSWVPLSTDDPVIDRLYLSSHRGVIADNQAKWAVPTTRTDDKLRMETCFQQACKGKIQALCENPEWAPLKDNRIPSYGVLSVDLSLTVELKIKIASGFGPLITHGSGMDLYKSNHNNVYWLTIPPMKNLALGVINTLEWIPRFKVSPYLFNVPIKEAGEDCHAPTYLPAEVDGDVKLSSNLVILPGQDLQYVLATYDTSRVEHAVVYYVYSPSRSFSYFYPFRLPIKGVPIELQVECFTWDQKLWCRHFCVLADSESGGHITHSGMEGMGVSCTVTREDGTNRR
Assay [3] concerns the target head domain of measles virus hemagglutinin, IC-B wild-type strain (measles virus, IC-B strain) (UniProt Q786F2). Nature of the assay: SPR.
Chain of UniProt Q786F2 (Q786F2 149-617): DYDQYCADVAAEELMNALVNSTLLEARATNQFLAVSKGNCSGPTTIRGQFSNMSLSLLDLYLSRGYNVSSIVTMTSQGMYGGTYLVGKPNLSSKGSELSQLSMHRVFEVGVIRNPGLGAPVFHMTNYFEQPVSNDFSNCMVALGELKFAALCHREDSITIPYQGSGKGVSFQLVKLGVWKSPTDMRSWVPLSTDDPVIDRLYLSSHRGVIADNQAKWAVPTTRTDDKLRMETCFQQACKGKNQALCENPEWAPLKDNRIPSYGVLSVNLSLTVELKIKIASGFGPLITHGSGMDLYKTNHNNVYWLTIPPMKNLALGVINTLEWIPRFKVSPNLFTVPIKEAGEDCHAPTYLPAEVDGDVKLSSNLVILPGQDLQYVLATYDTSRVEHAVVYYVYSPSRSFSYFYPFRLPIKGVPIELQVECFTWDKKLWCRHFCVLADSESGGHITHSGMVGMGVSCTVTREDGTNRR

Chain of UniProt Q95MM9 (Q95MM9 27-342): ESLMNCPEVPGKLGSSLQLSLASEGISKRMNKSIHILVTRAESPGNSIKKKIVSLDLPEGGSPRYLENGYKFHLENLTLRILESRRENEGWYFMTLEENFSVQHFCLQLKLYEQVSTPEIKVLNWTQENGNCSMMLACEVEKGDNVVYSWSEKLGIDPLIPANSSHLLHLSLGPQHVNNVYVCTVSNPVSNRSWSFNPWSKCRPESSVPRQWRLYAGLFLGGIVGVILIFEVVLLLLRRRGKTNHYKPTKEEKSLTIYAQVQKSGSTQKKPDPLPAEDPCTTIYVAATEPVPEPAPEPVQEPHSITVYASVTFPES

Take “CDV-A75/17 hemagglutinin (from UniProt Q65999)”: the Kd in assay [1] is 8 µM.

In assay [2], “soluble SLAM ectodomain (V-set and C2) from cotton-top tamarin (domain or fragment)” showed a Kd of 0.0467 µM, an off-rate (koff) of 0.000952 s⁻¹ and a kon of 20400 M⁻¹ s⁻¹. In assay [3], this substance came in with a Kd of 0.243 µM, a koff of 0.00241 s⁻¹ and a kon of 9890 M⁻¹ s⁻¹.

The values are drawn from PMC6722581.
